According to the supplement of paper PMC10567573:

B1: PRKX (parent)
chain: KLLVVDRTRRLGNMKNGANDVKHH

Variants of: B1
Assay: protein stability index of a GFP-peptide fusion (GPS, HEK-293T) (PSI 1-6); higher = more stable
Details: c terminus: a fixed tail appended
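Note: lentivirally expressed fusions sorted by FACS into six bins by GFP to DsRed ratio, PSI derived from sequencing read proportions per bin multiplied by bin number.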

| Variant | protein stability index |
| --- | --- |
| KLLVVDRTRRLGNMKNGYNDVKHH [A18Y] | 2.29 |
| KLLVVDRTRRLGNMKNGVNDVKHH [A18V] | 2.63 |
| KLLVVDRTRRLGNMKNGTNDVKHH [A18T] | 3.23 |
| KLLVVDRTRRLGNMKNGWNDVKHH [A18W] | 2.2 |
| KLLVVDRTRRLGNMKNGANDWKHH [V21W] | 2.62 |
| KLLVVDRTRRLGNMKNGANDYKHH [V21Y] | 2.34 |
| KLLVVDRTRRLGNMKNGANDEKHH [V21E] | 4.12 |
| KLLVVDRTRRLGNMKNGANDHKHH [V21H] | 3.43 |
| KLLVVDRTRRLGNMKNGANDDKHH [V21D] | 3.54 |
| KLLVVDRTRRLGNMKNGANDGKHH [V21G] | 3.47 |
| KLLVVDRTRRLGNMKNGANDSKHH [V21S] | 3.2 |
| KLLVVDRTRRLGNMKNGANDMKHH [V21M] | 3.06 |
| KLLVVDRTRRLGNMKNGANDNKHH [V21N] | 3.74 |
| KLLVVDRTRRLGNMKNGANDKKHH [V21K] | 3.54 |
| KLLVVDRTRRLGNMKNGANDRKHH [V21R] | 2.79 |
| KLLVVDRTRRLGNMKNGANDCKHH [V21C] | 2.67 |
| KLLVVDRTRRLGNMKNGANDAKHH [V21A] | 3.5 |
| KLLVVDRTRRLGNMKNGANDFKHH [V21F] | 3.22 |
| KLLVVDRTRRLGNMKNGANDPKHH [V21P] | 3.37 |
| KLLVVDRTRRLGNMKNGANDQKHH [V21Q] | 3.36 |
| KLLVVDRTRRLGNMKNGANDLKHH [V21L] | 2.66 |
| KLLVVDRTRRLGNMKNGANDIKHH [V21I] | 2.55 |
| KLLVVDRTRRLGNMKNGANDTKHH [V21T] | 3.39 |
| KLLVVDRTRRLGNMKNGANDVKKH [H23K] | 3.4 |

| Variant | protein stability index |
| --- | --- |
| KLLVVDRTRRLGNMKNGANDVKFH [H23F] | 2.53 |
| KLLVVDRTRRLGNMKNGANDVKMH [H23M] | 2.33 |
| KLLVVDRTRRLGNMKNGANDVKQH [H23Q] | 2.69 |
| KLLVVDRTRRLGNMKNGANDVKAH [H23A] | 3.1 |
| KLLVVDRTRRLGNMKNGANDVKLH [H23L] | 2.85 |
| KLLVVDRTRRLGNMKNGANDVKCH [H23C] | 2.94 |
| KLLVVDRTRRLGNMKNGANDVKDH [H23D] | 3.68 |
| KLLVVDRTRRLGNMKNGANDVKNH [H23N] | 3.72 |
| KLLVVDRTRRLGNMKNGANDVKIH [H23I] | 2.67 |
| KLLVVDRTRRLGNMKNGANDVKEH [H23E] | 3.44 |
| KLLVVDRTRRLGNMKNGANDVKPH [H23P] | 3.37 |
| KLLVVDRTRRLGNMKNGANDVKRH [H23R] | 2.44 |
| KLLVVDRTRRLGNMKNGANDVKGH [H23G] | 2.92 |
| KLLVVDRTRRLGNMKNGANSVKHH [D20S] | 2.38 |
| KLLVVDRTRRLGNMKNGANMVKHH [D20M] | 2.71 |
| KLLVVDRTRRLGNMKNGANAVKHH [D20A] | 3.13 |
| KLLVVDRTRRLGNMKNGANEVKHH [D20E] | 3.01 |
| KLLVVDRTRRLGNMKNGANNVKHH [D20N] | 2.74 |
| KLLVVDRTRRLGNMKNGANQVKHH [D20Q] | 3.13 |
| KLLVVDRTRRLGNMKNGANTVKHH [D20T] | 2.65 |
| KLLVVDRTRRLGNMKNGANIVKHH [D20I] | 2.09 |
| KLLVVDRTRRLGNMKNGANCVKHH [D20C] | 2.33 |
| KLLVVDRTRRLGNMKNGANVVKHH [D20V] | 2.6 |
| KLLVVDRTRRLGNMKNGANPVKHH [D20P] | 2.75 |

| Variant | protein stability index |
| --- | --- |
| KLLVVDRTRRLGNMKNGANYVKHH [D20Y] | 2.19 |
| KLLVVDRTRRLGNMKNGANHVKHH [D20H] | 2.89 |
| KLLVVDRTRRLGNMKNGANGVKHH [D20G] | 3.27 |
| KLLVVDRTRRLGNMKNGANKVKHH [D20K] | 2.55 |
| KLLVVDRTRRLGNMKNGANFVKHH [D20F] | 2.13 |
| KLLVVDRTRRLGNMKNGANRVKHH [D20R] | 2.53 |
| KLLVVDRTRRLGNMKNGANWVKHH [D20W] | 2.3 |
| KLLVVDRTRRLGNMKNGANLVKHH [D20L] | 2.41 |
| KLLVVDRTRRLGNMKNGAADVKHH [N19A] | 2.84 |
| KLLVVDRTRRLGNMKNGAGDVKHH [N19G] | 3.12 |
| KLLVVDRTRRLGNMKNGADDVKHH [N19D] | 3.12 |
| KLLVVDRTRRLGNMKNGALDVKHH [N19L] | 2.47 |
| KLLVVDRTRRLGNMKNGAWDVKHH [N19W] | 2.71 |
| KLLVVDRTRRLGNMKNGASDVKHH [N19S] | 3.16 |
| KLLVVDRTRRLGNMKNGAHDVKHH [N19H] | 2.75 |
| KLLVVDRTRRLGNMKNGAPDVKHH [N19P] | 2.97 |
| KLLVVDRTRRLGNMKNGACDVKHH [N19C] | 2.66 |
| KLLVVDRTRRLGNMKNGARDVKHH [N19R] | 2.54 |
| KLLVVDRTRRLGNMKNGAEDVKHH [N19E] | 3.3 |
| KLLVVDRTRRLGNMKNGAIDVKHH [N19I] | 2.29 |
| KLLVVDRTRRLGNMKNGATDVKHH [N19T] | 3.11 |
| KLLVVDRTRRLGNMKNGAKDVKHH [N19K] | 3.6 |
| KLLVVDRTRRLGNMKNGAMDVKHH [N19M] | 2.59 |
| KLLVVDRTRRLGNMKNGAFDVKHH [N19F] | 2.32 |

| Variant | protein stability index |
| --- | --- |
| KLLVVDRTRRLGNMKNGAQDVKHH [N19Q] | 2.89 |
| KLLVVDRTRRLGNMKNGAVDVKHH [N19V] | 2.64 |
| KLLVVDRTRRLGNMKNGAYDVKHH [N19Y] | 2.08 |
| KLLVVDRTRRLGNMKNGANDVMHH [K22M] | 2.51 |
| KLLVVDRTRRLGNMKNGANDVNHH [K22N] | 3.06 |
| KLLVVDRTRRLGNMKNGANDVGHH [K22G] | 3.24 |
| KLLVVDRTRRLGNMKNGANDVPHH [K22P] | 3.02 |
| KLLVVDRTRRLGNMKNGANDVQHH [K22Q] | 3.27 |
| KLLVVDRTRRLGNMKNGANDVIHH [K22I] | 2.32 |
| KLLVVDRTRRLGNMKNGANDVTHH [K22T] | 2.99 |
| KLLVVDRTRRLGNMKNGANDVWHH [K22W] | 2.13 |
| KLLVVDRTRRLGNMKNGANDVEHH [K22E] | 3.58 |
| KLLVVDRTRRLGNMKNGANDVAHH [K22A] | 2.71 |
| KLLVVDRTRRLGNMKNGANDVSHH [K22S] | 3.52 |
| KLLVVDRTRRLGNMKNGANDVYHH [K22Y] | 2.5 |
| KLLVVDRTRRLGNMKNGANDVRHH [K22R] | 2.97 |
| KLLVVDRTRRLGNMKNGANDVLHH [K22L] | 2.97 |
| KLLVVDRTRRLGNMKNGANDVVHH [K22V] | 2.88 |
| KLLVVDRTRRLGNMKNGANDVCHH [K22C] | 2.7 |
| KLLVVDRTRRLGNMKNGANDVDHH [K22D] | 3.42 |
| KLLVVDRTRRLGNMKNGANDVFHH [K22F] | 2.04 |
| KLLVVDRTRRLGNMKNGANDVHHH [K22H] | 3.06 |
